In article PMC11098746 (2024):

B1: ADP189 (protein)
chain: NNIAHKEDDCGASELAIKKLQELKKFELDILKDFIKKDTDHTDMYKRYHCISSDFLKNTKQEDKKEDNYAKKEDKKDIENSANYIINNKNEKISFINKIISFVGMWNYNKYGNNIQESKNKINIYNNNNNKAENELLYNKEDYTNHIPTNENPNSYMQLSAFNLAKKSMFLGGKDNAAQNFEVGNYGSFYMIFGARNTDYPWACSCDTLQLEEYKEKKRSYVLCSNQLDMSIQNSDLFCNPKN
modifications: bait human Fc-tagged dimer; N-glycosylation sequons mutated in Plasmodium baits
B2: ADP173 (protein)
chain: EVESSDSTSFLNLISGQSSSNSDDTVSSSDSRGVVASVSGTVDSDVSRTDSTGNVNSKNSELSETRQNSVEQNNNANSADNSIKIKSAFLKENVGVKITGPCDEGFGLVMVPHIIINVDTRNTDIQLGKKSSEINYGIKLRKKGKDEYEEKVGIDLLKNVCETGKNFKFVAYIKGDELIIKWKVIEEGNIPIDIKKFKIKRMSPPITSIQVFSSMSDEKSFVLENKNYVVTNNMPEKCEALATNCFLSGNIDIEKCYQCSLLVENDAKSDVCYNFISRENKEKLNEERFKVKGSTEYEESVESELKGAIDLLISSFYKSDGENGENVLISFEDLNSALEDDIINFCSLLKLVDLSGTFMNHQIGTTADAFNNIVKLLKEHKEEDEFVLRTKLRNPALCMKNVDDWVKSRCGLLTSDDSYVVIKKNSDTNGKNENNEANDEEYDGVIDLSTNENGNVKSIQFNDDIYCNDDYCNRWKNENNCISKIGVEDQGNCASSWAFASKLHFETLRCMKGYDHLGISALYLTNCAKGKISKRCTEGGNPAEFLEIVSNSGFLPTEFDYPYFYALVENSCPSGLNKWINLWEDVKLFDYKYEPNSIGSKGYSVYKSEMFKDNMDEYVKMIKSEIKNKGSVIAYINAQSVLTYDFNGKNILNMCGSKTTDHSINVIGYGHYKNKEGEEKSYWLVRNSWGYYWGDEGNFKVDMYGPSNCNYHFINTVLVFNIDIPMMNNNENNKKGLYNYFPKYTHEFYHNFYDQNFGSDNKISLINSNGANKNDVNNAYTVHGQSGETEVQPSQLRSTANQDSNRGAVTSDPLRTQPETTSTSVKKMDVFQVLKHVKNSKIKVGLIKYDNDDEIGAHHSCTRAYSFDPEKYDECVEFCRKNWEQCKDKPSPGFCLTKLDESKGCFFCYV
modifications: bait human Fc-tagged dimer; N-glycosylation sequons mutated in Plasmodium baits
B3: ADP178 (protein)
chain: SDTFRVFEDFDVRRKNKIWCCNLNHEKSYFHNKAINTAYKNRVLKESILLNLDLDMKKYKDNIITRKKTPENIYKEIYENNYEMKYDEDIPNNMAEEKRDEKEVIEHLEIDEKNGKQYKSDINKPVSLSHLKQYKNIYVNNNNKINKKKSIDKHLPSYNLERKNNKYLNFLLVDNRNEAYTFMVPMKFYINHEMYNIADEEYNKLMEDNSVDVYLNNILVEYKYENFEIKEGEVDGEVEGEGEVEGEVEGEVKGKVVEGIENNMNEEEKYNKDNKDKENQINSNGQDENTEFQENDNNDAVIMKYT
modifications: bait human Fc-tagged dimer; N-glycosylation sequons mutated in Plasmodium baits

Key:
Assay in all cases: AVEXIS screen signal:noise (double-corrected)
ADP110 = target: ADP110
ADP112 = target: ADP112
ADP103 = target: T1, ADP103
T1 chain: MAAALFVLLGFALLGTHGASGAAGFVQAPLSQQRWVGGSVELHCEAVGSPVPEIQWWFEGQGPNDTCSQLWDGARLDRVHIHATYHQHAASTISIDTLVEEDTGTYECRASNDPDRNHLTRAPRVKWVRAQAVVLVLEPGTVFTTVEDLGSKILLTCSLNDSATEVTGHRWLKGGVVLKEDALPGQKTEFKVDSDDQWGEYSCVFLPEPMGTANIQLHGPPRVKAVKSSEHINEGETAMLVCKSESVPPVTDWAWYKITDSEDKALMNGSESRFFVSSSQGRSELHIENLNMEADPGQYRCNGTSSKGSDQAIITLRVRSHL

ADP315 = target: T2, ADP315
T2 chain: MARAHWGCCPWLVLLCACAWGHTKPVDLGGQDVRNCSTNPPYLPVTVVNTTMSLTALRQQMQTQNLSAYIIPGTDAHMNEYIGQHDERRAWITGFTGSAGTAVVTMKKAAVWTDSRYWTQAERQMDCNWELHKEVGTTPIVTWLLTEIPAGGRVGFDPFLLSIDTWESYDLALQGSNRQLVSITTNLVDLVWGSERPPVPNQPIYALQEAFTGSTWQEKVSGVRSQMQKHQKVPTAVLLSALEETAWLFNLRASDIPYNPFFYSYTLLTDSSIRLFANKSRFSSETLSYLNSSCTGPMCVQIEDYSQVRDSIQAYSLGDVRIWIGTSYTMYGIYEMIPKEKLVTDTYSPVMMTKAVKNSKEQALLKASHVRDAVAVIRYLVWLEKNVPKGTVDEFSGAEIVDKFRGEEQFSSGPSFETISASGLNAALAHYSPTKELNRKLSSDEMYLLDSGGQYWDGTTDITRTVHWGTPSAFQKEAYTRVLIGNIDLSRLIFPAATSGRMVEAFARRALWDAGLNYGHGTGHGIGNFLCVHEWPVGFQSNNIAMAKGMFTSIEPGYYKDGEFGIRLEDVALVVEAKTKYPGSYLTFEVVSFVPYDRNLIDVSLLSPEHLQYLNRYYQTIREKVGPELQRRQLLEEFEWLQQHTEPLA

ADP323 = target: ADP323
ADP133 = target: T3, ADP133
T3 chain: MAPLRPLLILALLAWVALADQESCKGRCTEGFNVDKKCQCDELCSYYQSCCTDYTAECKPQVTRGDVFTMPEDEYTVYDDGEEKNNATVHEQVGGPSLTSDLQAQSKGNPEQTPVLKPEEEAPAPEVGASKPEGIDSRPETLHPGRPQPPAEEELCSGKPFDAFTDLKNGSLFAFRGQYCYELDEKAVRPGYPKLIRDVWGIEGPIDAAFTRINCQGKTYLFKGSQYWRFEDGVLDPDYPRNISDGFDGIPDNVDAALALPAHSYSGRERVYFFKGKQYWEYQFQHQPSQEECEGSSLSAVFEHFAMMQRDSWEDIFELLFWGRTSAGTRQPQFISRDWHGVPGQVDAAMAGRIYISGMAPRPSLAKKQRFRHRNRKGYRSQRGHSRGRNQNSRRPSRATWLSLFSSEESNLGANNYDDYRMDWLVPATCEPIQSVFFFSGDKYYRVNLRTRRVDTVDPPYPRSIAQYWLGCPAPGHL

ADP372 = target: T4, ADP372
T4 chain: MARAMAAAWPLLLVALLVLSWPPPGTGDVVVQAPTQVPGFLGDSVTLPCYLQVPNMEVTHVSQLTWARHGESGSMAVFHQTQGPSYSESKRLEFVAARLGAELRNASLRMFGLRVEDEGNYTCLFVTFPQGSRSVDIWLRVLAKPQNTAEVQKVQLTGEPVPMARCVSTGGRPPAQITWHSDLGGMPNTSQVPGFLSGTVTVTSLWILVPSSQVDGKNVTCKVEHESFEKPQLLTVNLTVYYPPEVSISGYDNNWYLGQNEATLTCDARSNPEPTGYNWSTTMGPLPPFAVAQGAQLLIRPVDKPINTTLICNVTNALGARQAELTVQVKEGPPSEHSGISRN

ADP150 = target: T5, ADP150
T5 chain: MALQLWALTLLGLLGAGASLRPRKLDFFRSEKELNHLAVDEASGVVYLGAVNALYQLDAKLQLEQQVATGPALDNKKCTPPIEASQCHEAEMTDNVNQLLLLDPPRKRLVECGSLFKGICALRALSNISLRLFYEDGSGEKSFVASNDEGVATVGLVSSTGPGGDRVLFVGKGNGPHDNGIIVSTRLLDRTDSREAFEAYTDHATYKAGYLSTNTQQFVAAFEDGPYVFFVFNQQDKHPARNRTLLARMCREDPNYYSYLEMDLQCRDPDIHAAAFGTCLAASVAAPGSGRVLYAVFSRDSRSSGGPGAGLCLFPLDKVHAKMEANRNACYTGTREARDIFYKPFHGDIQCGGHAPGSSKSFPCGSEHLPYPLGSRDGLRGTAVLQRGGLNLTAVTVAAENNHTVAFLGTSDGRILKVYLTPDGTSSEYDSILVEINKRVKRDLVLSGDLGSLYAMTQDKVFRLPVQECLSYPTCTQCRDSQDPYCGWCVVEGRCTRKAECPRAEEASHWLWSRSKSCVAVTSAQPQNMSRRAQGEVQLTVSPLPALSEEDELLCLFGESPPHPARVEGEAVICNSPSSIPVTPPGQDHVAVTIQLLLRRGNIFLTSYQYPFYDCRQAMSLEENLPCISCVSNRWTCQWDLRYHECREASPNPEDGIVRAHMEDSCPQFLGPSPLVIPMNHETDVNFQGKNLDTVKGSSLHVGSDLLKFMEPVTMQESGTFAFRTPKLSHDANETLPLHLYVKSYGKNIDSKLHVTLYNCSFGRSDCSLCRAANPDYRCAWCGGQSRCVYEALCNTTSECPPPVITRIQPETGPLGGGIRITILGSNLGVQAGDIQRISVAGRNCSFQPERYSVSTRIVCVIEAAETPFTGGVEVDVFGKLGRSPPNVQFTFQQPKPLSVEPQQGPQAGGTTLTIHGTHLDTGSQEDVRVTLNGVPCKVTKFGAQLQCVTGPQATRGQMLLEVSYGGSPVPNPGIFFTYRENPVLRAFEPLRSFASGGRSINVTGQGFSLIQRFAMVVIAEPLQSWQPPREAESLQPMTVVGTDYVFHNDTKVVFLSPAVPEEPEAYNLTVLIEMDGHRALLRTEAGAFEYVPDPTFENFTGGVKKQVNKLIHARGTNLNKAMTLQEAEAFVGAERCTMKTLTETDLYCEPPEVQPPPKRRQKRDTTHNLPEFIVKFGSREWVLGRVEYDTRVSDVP

| Binder | binding score (ADP110) | binding score (ADP112) | binding score (ADP103) | binding score (ADP315) | binding score (ADP323) | binding score (ADP133) | binding score (ADP372) | binding score (ADP150) |
| --- | --- | --- | --- | --- | --- | --- | --- | --- |
| B1 | 34.1 | 7.26 |  |  |  |  |  |  |
| B2 |  |  | 7.09 | 5.31 | 7.35 | 6.59 |  |  |
| B3 |  |  | 10.2 |  |  |  | 5.47 | 8.31 |
